Source: paper PMC10033316

Experiment: BS3 cross-linking, non-reducing SDS-PAGE, anti-Flag blot
Details: glycan changed form; control: K562/ADR cells (low GnT-III)

B1: TNF receptor 2 (TNFR2): GnT-III overexpression (protein)
parent chain: MAPVAVWAALAVGLELWAAAHALPAQVAFTPYAPEPGSTCRLREYYDQTAQMCCSKCSPGQHAKVFCTKTSDTVCDSCEDSTYTQLWNWVPECLSCGSRCSSDQVETQACTREQNRICTCRPGWYCALSKQEGCRLCAPLRKCRPGFGVARPGTETSDVVCKPCAPGTFSNTTSSTDICRPHQICNVVAIPGNASMDAVCTSTSPTRSMAPGAVHLPQPVSTRSQHTQPTPEPSTAPSTSFLLPMGPSPPAEGSTGDFALPVGLIVGVTALGLLIIGVVNCVIMTQVKKKPLCLQREAKVPHLPADKARGTQGPEQQHLLITAPSSSSSSLESSASALDRRAPTRNQPQAPGVEASGAGEARASTGSSDSSPGGHGTQVNVTCIVNVCSSSDHSSQCSSQASSTMGDTDSSPSESPKDEQVPFSKEECAFRSQLETPETLLGSTEEKPLPLGVPDAGMKPS
In the case of B1, the oligomerisation is reported as “decreases”.
